The values that follow are results of earlier work, collected in article PMC5803488.

Like-named read-outs stand apart in the source and are kept apart here.

The target in data set [1] is ubiquitin (UniProt P0CG48).
The target of data set [2] is ubiquitin (UniProt P0CG48). The source holds these as a separate data set.

Chain of Vps36 (Eap45) GLUE (Q86VN1 1-138): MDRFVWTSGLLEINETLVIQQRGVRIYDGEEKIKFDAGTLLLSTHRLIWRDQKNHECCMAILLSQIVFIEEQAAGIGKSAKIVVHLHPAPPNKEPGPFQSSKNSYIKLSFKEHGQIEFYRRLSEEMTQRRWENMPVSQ
Chain of Tsg101 UEV (Q99816 1-148): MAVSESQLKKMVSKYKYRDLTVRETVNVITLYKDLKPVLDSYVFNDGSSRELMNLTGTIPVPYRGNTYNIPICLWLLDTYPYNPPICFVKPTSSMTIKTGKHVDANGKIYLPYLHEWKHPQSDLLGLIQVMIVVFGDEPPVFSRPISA

On to Tsg101 UEV (from UniProt Q99816), for which the equilibrium dissociation constant (Kd) with ubiquitin [1] was 510 µM.
Consider “Vps36 (Eap45) GLUE (from UniProt Q86VN1)”, for which the equilibrium dissociation constant (Kd) in the data set with ubiquitin [2] was 330 µM.
